In article PMC5061712:

What was measured:
[1] = target: FtsX‐His (full‐length pneumococcal FtsX with a His6 tag) (Streptococcus pneumoniae); experiment: cross-linking; FtsX‐His and FtsE‐His together in detergent micelles with glutaraldehyde; data not shown
[2] = target: FtsX‐His (full‐length pneumococcal FtsX with a His6 tag) (Streptococcus pneumoniae); experiment: cross-linking; FtsX‐His (5–10 μmol/L) with glutaraldehyde (0.5–2.0 mmol/L), 30–45 min, room temperature, 50 mmol/L HEPES pH 8.0, 200 mmol/L NaCl, 5% glycerol, 0.02% DDM, 0.02% C12E8; SDS‐PAGE, Coomassie
[3] = target: FtsX‐His (full‐length pneumococcal FtsX with a His6 tag) (Streptococcus pneumoniae); experiment: densitometry of Coomassie‐stained bands of purified nanodiscs; FtsX‐His reconstituted in MSPE3D1/soybean lipid nanodiscs, purified by Ni‐NTA and SEC; relative intensities of MSPE3D1 and FtsX‐His bands, assuming two MSPE3D1 per nanodisc

FtsX‐His (full‐length pneumococcal FtsX with a His6 tag) (natural protein)
stoichiometry N [1]: 2
stoichiometry N [2]: 2
FtsX‐His molecules per nanodisc (molecules per nanodisc) [3]: 1.5
